Measurements reported in patent US20240228562A1 (Pieris, published 2024).

B1: fusion protein of SEQ ID NO: 74 (designed binder)
chain: QDSTSDLIPAPPLSKVPLQQNFQDNQFQGKWYVVGLAGNAILREDKQPAKMFATIYELKEDKSYDVTSVRFEAKSCKYTIKTFVPGSQPGEFTAGYIKSAPGQTSTLVRVVSTNYNQHAMVFFKHVTQNREIFVITLYGRTKELTSELKENFIRFSKSLGLPENHIVFPVPIDQCIDGGGGGSGGGGSGGGGSQDSTSDLIPAPPLSKVPLQQNFQDNQFQGKWYVVGWAGNVKLREDKQPQKMSATIYELKEDKSYDVTEVVFEQKKCHYIIKTFVPGSQPGEFTAGDIKSPPGYTSSLVRVVSTNYNQHAMVFFKKVSQNREFFWITLYGRTKELTSELKENFIRFSKSLGLPENHIVFPVPIDQCIDG
notes: not shown: C-terminal His-tag
B2: fusion protein of SEQ ID NO: 76 (designed binder)
chain: QDSTSDLIPAPPLSKVPLQQNFQDNQFQGKWYVVGLAGNAILREDKQPAKMFATIYELKEDKSYDVTSVRFEAKSCKYTIKTFVPGSQPGEFTAGYIKSAPGQTSTLVRVVSTNYNQHAMVFFKHVTQNREIFVITLYGRTKELTSELKENFIRFSKSLGLPENHIVFPVPIDQCIDGGGGGSGGGGSGGGGSQDSTSDLIPAPPLSKVPLQQNFQDNQFQGKWYVVGWAGNVKLREDKQPLKMSATIYELKEDKSYDVTEVVFEQKKCHYIIKTFVPGSQPGEFTAGDIKSPPGYTSSLVRVVSTNYNQHAMVFFKKVSQNREFFWITLYGRTKELTSELKENFIRFSKSLGLPENHIVFPVPIDQCIDG
notes: not shown: C-terminal His-tag
B3: lipocalin mutein of SEQ ID NO: 17 (designed binder)
chain: QDSTSDLIPAPPLSKVPLQQNFQDNQFQGKWYVVGLAGNAILRTDKQPAKMFATIYELKEDKSYDVTSVRFEAKSCVYTSKTFVPGSQPGEFTAGNIKSAPGQTSTLVRVVSTNYNQHAMVFFKHVSQNREFFVITLYGRTKELTSELKENFIRFSKSLGLPENHIVFPVPIDQCIDG
notes: also called hNGAL mutein; not shown: C-terminal His-tag
B4: lipocalin mutein of SEQ ID NO: 20 (designed binder)
chain: QDSTSDLIPAPPLSKVPLQQNFQDNQFQGKWYVVGLAGNAILREDKQPAKMFATIYELKEDKSYDVTSVRFEAKSCSYTIKTFVPGSQPGEFTAGNIKSAPGQTSTLVRVVSTNYNQHAMVFAKAVQLNREHFFITLYGRTKELTSELKENFIRFSKSLGLPENHIVFPVPIDQCIDG
notes: as for B3

Tests used:
huCYR61 = biological target: T1, huCYR61 (human, UniProt O00622 25-381, limits assumed); assay: ELISA, coated CCN protein
T1 construct: also called human CYR61 (CCN1)
T1 sequence (looked up): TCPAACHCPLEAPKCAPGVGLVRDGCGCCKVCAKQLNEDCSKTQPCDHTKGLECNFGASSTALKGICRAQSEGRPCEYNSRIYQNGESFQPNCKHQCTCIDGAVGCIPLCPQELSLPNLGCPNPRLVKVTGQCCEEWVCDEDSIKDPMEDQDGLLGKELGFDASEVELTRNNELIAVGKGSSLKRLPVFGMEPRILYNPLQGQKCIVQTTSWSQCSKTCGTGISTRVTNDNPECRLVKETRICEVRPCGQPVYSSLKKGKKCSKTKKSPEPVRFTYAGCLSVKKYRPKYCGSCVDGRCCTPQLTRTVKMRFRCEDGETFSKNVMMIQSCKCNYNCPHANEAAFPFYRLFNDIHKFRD
Description: (§1) Binding of muteins to closely related proteins of CTGF was tested by an ELISA assay. In detail, a 384-well plate suitable for fluorescence measurements (Greiner FLUOTRAC™ 600, black flat bottom, high-binding) was coated with 20 μl of human CTGF or the other members of the CCN protein family at a concentration of 1 μg/ml in PBS over night at 4° C. After washing with PBS with 0.05% Tween 20, wells were blocked with 100 μl blocking buffer containing 0.1% Tween 20 and 2% BSA (PBS-T/BSA) for 1 h at room temperature. 20 μl of serially diluted muteins starting at 1000 nM were incubated in PBS-T/BSA for 1 h at room temperature (RT).
(§2) The residual supernatants were discarded and 20 μl HRP-labeled anti-NGAL or anti-Strep-Tag antibody was added at a predetermined optimal concentration in PBS-T/BSA and incubated for 1 h at RT. After washing, 20 μl fluorogenic HRP substrate (QuantaBlu, Thermo) was added to each well, and the reaction was allowed to proceed for 2 to 60 minutes. The fluorescence intensity of every well on the plate was read using a fluorescence microplate reader (Tecan). When the signal for human CTGF approached saturation, the cross reactivity to the other proteins was assessed.

huWISP-3 = biological target: T2, huWISP-3 (human, UniProt O95389 24-354, limits assumed); assay: ELISA, coated CCN protein
T2 construct: also called human WISP-3 (CCN6)
T2 sequence (looked up): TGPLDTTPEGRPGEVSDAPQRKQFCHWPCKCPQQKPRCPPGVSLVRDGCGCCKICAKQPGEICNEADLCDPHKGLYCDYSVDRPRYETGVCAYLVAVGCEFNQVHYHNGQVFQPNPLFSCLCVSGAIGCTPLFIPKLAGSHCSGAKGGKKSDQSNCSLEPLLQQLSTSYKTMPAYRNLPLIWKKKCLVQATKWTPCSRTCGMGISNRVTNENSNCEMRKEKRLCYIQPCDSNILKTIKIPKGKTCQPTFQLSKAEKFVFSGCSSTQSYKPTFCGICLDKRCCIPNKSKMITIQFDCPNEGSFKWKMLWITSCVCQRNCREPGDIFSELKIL
Description: as §1, §2

huNOV = biological target: T3, huNOV (human, UniProt P48745 32-357, limits assumed); assay: ELISA, coated CCN protein
T3 construct: also called human NOV (CCN3)
T3 sequence (looked up): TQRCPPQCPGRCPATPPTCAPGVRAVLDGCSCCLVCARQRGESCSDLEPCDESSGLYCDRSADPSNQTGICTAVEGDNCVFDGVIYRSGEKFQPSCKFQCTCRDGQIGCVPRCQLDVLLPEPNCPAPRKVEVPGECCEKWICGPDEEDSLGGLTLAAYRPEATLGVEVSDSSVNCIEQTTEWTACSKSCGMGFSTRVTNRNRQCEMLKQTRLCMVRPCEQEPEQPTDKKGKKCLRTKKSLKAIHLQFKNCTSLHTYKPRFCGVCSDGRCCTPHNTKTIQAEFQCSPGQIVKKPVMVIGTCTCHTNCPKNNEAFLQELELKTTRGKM
Description: as §1, §2

huWISP-1 = biological target: T4, huWISP-1 (human, UniProt O95388 23-367, limits assumed); assay: ELISA, coated CCN protein
T4 construct: also called human WISP-1 (CCN4)
T4 sequence (looked up): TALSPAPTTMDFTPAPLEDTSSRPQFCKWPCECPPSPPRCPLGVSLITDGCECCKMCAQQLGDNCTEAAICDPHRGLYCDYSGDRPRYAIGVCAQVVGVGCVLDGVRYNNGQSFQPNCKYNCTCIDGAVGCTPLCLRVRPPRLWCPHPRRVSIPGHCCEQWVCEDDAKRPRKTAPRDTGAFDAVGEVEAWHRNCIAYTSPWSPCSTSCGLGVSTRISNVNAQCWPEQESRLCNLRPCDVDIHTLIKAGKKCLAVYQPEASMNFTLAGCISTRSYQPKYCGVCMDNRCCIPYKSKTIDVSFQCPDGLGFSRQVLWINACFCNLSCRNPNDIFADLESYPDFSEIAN
Description: as §1, §2

huWISP-2 = biological target: T5, huWISP-2 (human, UniProt O76076 24-250, limits assumed); assay: ELISA, coated CCN protein
T5 construct: also called human WISP-2 (CCN5)
T5 sequence (looked up): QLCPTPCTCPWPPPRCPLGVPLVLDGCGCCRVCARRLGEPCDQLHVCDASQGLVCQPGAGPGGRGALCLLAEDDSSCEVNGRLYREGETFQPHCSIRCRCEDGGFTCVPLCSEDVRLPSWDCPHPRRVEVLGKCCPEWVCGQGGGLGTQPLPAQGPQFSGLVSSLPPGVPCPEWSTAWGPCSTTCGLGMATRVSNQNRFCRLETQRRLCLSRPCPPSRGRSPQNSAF
Description: as §1, §2

[1] = biological target: T6, recombinant human CTGF protein (R&D Systems, SEQ ID NO: 79) (human, UniProt P29279 27-349); assay: HTRF, 1 nM biotinylated human CTGF
T6 construct: Bought; also called human CTGF/CNN2; huCTGF
T6 sequence: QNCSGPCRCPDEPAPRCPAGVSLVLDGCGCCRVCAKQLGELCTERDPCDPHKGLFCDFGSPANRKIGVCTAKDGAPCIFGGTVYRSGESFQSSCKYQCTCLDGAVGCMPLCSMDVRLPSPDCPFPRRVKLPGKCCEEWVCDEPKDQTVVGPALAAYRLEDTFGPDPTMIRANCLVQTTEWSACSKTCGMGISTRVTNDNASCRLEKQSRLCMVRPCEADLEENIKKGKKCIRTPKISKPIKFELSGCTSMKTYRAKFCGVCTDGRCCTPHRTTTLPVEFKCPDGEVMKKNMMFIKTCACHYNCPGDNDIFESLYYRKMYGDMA
Description: Binding of some fusion proteins was tested by a Homogeneous Time Resolved Fluorescence (HTRF assay). In detail, 1 nM of biotinylated human CTGF (R&D Systems) was incubated for 1 h with a titration of some lipocalins starting at 5 nM in 384 Flat Bottom White Polystyrol microtiter plate (Greiner). Samples were diluted in PBS containing 0.1% Tween 20 and 2% BSA. As donor, Streptavidin-Terbium at a concentration of 0,006 μg/mL was used, the acceptor was 0.2 μg/mL anti-His-d2 (both CisBio). After another 1 h of incubation, the fluorescence intensity of the donor and acceptor on the plate was read using a fluorescence microplate reader M1000 (Tecan) with the standard settings recommended by CisBio. The calculated ratio of signals was used for the curve fitting performed in GraphPad Prism 7 software.

[2] = biological target: T6, recombinant human CTGF protein (R&D …); assay: ELISA, coated human CTGF
Description: as §1, with “fusion” for “muteins to closely related”, “proteins” for “proteins of CTGF”, “(R&D Systems)” for “or the other members of the CCN protein family”, “muteins” for “muteins starting at 1000 nM”
as §2, with “anti-His-Tag” for “anti-Strep-Tag”, “Curve fitting” for “When the signal for human CTGF approached saturation, the cross reactivity to the other proteins”, “performed using GraphPad Prism 7 or 8 software.” for “assessed.”

[3] = biological target: T7, recombinant human CTGF-Fc protein (Creative Biomart) (human); assay: SPR (Biacore); B = binding without determination of kinetics constants
T7 construct: Bought; also called human CTGF with a human IgG1 Fc Tag
Description: The binding of exemplary lipocalin muteins to human (Creative Biomart), cynomolgus, rat (R&D Systems) and mouse CTGF (Abbexa) was determined by SPR using a Biacore instrument (Cytiva, formerly GE Healthcare). Some targets were fused to a human IgG1 Fc tag, and captured via the anti-human IgG antibody kit, others were directly immobilized.
For some measurements, human CTGF with a human IgG1 Fc Tag or rat or murine CTGF without a tag were directly immobilized to a CM5 Chip. The carboxyl groups on the chip were activated using 1-ethyl-3-(3-dimethylaminopropyl)-carbodiimide (EDC) and N-hydroxysuccinimide (NHS). […] Residual non-reacted NHS-esters were blocked by passing a solution of 1 M ethanolamine across the surface. The reference channel was activated/deactivated. For the capture setting, targets with an IgG Fc Tag at 0.25-2.5 μg/mL in HBS-EP+ buffer were captured by the anti-human IgG-Fc antibody at the chip surface for 180 s at a flow rate of 10 μL/min.
The binding assay was carried out with a contact time of 180 s, a dissociation time of 900-3600 s and a flow rate of 30 μL/min. All measurements were performed at 25° C. […] For the directly immobilized targets, the same regeneration conditions were used. Prior to the protein measurements, three startup cycles were performed for conditioning purposes.

Binder	binding result (huCYR61)	binding result (huWISP-3)	binding result (huNOV)	binding result (huWISP-1)	binding result (huWISP-2)	EC50 [1]	EC50 [2]	binding result [3]
B1	no binding (tested: dilutions starting at 1000 nM)	no binding (tested: dilutions starting at 1000 nM)	no binding (tested: dilutions starting at 1000 nM)	no binding (tested: dilutions starting at 1000 nM)	no binding (tested: dilutions starting at 1000 nM)	0.59 nM	0.26 nM	
B2	no binding (tested: dilutions starting at 1000 nM)	no binding (tested: dilutions starting at 1000 nM)	no binding (tested: dilutions starting at 1000 nM)	no binding (tested: dilutions starting at 1000 nM)	no binding (tested: dilutions starting at 1000 nM)	0.62 nM	0.24 nM	
B3								binds
B4								binds
